Data from PMC2770544, “Conformational changes and loose packing promote E. coli Tryptophanase cold lability” (BMC Structural Biology, 2009).

Legend:
[1] = target: the molecule itself; assay: SEC; HPLC gel filtration (BIOSEP-SEC S-3000) at 25°C; holo enzymes, 1 mg/ml, Tricine-KCl buffer pH 7.5 with PLP (0.1 mM by the table's footnote), 2 mM EDTA, 5 mM 2-mercaptoethanol; tetramer to dimers
[2] = target: the molecule itself; assay: SEC; HPLC gel filtration (BIOSEP-SEC S-3000) at 2°C after 20 h at 2°C; holo enzymes, 1 mg/ml, Tricine-KCl buffer pH 7.5 with PLP (0.1 mM by the table's footnote), 2 mM EDTA, 5 mM 2-mercaptoethanol; tetramer to dimers
[3] = target: the molecule itself; assay: SEC; time profile of cold dissociation at 2°C followed by HPLC gel filtration; Tricine-KCl buffer pH 7.5, protein 1.0 mg/ml; tetramer to dimers
[4] = target: the molecule itself; assay: SEC; HPLC gel filtration (BIOSEP-SEC S-3000) at 25°C; holo enzymes, 1 mg/ml, Tricine-KCl buffer pH 7.5 with PLP (0.1 mM by the table's footnote), 2 mM EDTA, 5 mM 2-mercaptoethanol; tetramer to dimers; remark: listed apart in the source
[5] = target: the molecule itself; assay: SEC; HPLC gel filtration (BIOSEP-SEC S-3000) at 2°C after cooling (20 h; P. vulgaris 24 h); apo enzymes, same Tricine-KCl buffer without PLP; tetramer to dimers (P. vulgaris: also to monomers)
[6] = target: the molecule itself; assay: SEC; HPLC gel filtration (BIOSEP-SEC S-3000) at 25°C; apo enzymes, same Tricine-KCl buffer without PLP; tetramer to dimers (P. vulgaris: also to monomers)

Row | Protein | degree of dissociation to dimers (%) [1] [%] | degree of dissociation to dimers (%) [2] [%] | initial rate constant of cold dissociation (tetramer to dimers) [3] [min⁻¹] | stoichiometry N [4] | degree of dissociation to dimers (%) [5] [%] | degree of dissociation to dimers (%) [6] [%]
1 | E. coli tryptophanase Y74F mutant, holo form (enzyme, pyridoxal 5'-phosphate (PLP) covalently bound to Lys270, tryptophanase (Trpase), E. coli, Y74F mutant; the sample called 'Y74F holo' was run with 0.1 mM PLP; also called Y74F holo; source: E. coli BL21(DE3), pET17b plasmid, purified) MENFKHLPEPFRIRVIEPVKRTTRAYREEAIIKSGMNPFLLDSEDVFIDLLTDSGTGAVTQSMQAAMMRGDEAFSGSRSYYALAESVKNIFGYQYTIPTHQGRGAEQIYIPVLIKKREQEKGLDRSKMVAFSNYFFDTTQGHSQINGCTVRNVYIKEAFDTGVRYDFKGNFDLEGLERGIEEVGPNNVPYIVATITSNSAGGQPVSLANLKAMYSIAKKYDIPVVMDSARFAENAYFIKQREAEYKDWTIEQITRETYKYADMLAMSAKKDAMVPMGGLLCMKDDSFFDVYTECRTLCVVQEGFPTYGGLEGGAMERLAVGLYDGMNLDWLAYRIAQVQYLVDGLEEIGVVCQQAGGHAAFVDAGKLLPHIPADQFPAQALACELYKVAGIRAVEIGSFLLGRDPKTGKQLPCPAELLRLTIPRATYTQTHMDFIIEAFKHVKENAANIKGLTFTYEPKVLRHFTAKLKEV | 17 | 66 |  |  |  | 
2 | E. coli tryptophanase C298S mutant, holo form (enzyme, pyridoxal 5'-phosphate (PLP) covalently bound to Lys270, tryptophanase (Trpase), E. coli, C298S mutant; also called C298S holo; source: E. coli SVS 370 cells containing the tnaA gene with the site-directed mutation, purified as the wild type) MENFKHLPEPFRIRVIEPVKRTTRAYREEAIIKSGMNPFLLDSEDVFIDLLTDSGTGAVTQSMQAAMMRGDEAYSGSRSYYALAESVKNIFGYQYTIPTHQGRGAEQIYIPVLIKKREQEKGLDRSKMVAFSNYFFDTTQGHSQINGCTVRNVYIKEAFDTGVRYDFKGNFDLEGLERGIEEVGPNNVPYIVATITSNSAGGQPVSLANLKAMYSIAKKYDIPVVMDSARFAENAYFIKQREAEYKDWTIEQITRETYKYADMLAMSAKKDAMVPMGGLLCMKDDSFFDVYTECRTLSVVQEGFPTYGGLEGGAMERLAVGLYDGMNLDWLAYRIAQVQYLVDGLEEIGVVCQQAGGHAAFVDAGKLLPHIPADQFPAQALACELYKVAGIRAVEIGSFLLGRDPKTGKQLPCPAELLRLTIPRATYTQTHMDFIIEAFKHVKENAANIKGLTFTYEPKVLRHFTAKLKEV | < 5 | 64 | 0.0032 | 4 |  | 
3 | E. coli tryptophanase C298S mutant, apo form (enzyme, tryptophanase (Trpase), E. coli, C298S mutant, without PLP; one monomer in the asymmetric unit of the crystal, the tetramer arises by symmetry; also called C298S apo; apo C298S; source: E. coli SVS 370 cells containing the tnaA gene with the site-directed mutation, purified; apo enzyme by overnight dialysis of the holo enzyme) MENFKHLPEPFRIRVIEPVKRTTRAYREEAIIKSGMNPFLLDSEDVFIDLLTDSGTGAVTQSMQAAMMRGDEAYSGSRSYYALAESVKNIFGYQYTIPTHQGRGAEQIYIPVLIKKREQEKGLDRSKMVAFSNYFFDTTQGHSQINGCTVRNVYIKEAFDTGVRYDFKGNFDLEGLERGIEEVGPNNVPYIVATITSNSAGGQPVSLANLKAMYSIAKKYDIPVVMDSARFAENAYFIKQREAEYKDWTIEQITRETYKYADMLAMSAKKDAMVPMGGLLCMKDDSFFDVYTECRTLSVVQEGFPTYGGLEGGAMERLAVGLYDGMNLDWLAYRIAQVQYLVDGLEEIGVVCQQAGGHAAFVDAGKLLPHIPADQFPAQALACELYKVAGIRAVEIGSFLLGRDPKTGKQLPCPAELLRLTIPRATYTQTHMDFIIEAFKHVKENAANIKGLTFTYEPKVLRHFTAKLKEV |  |  |  |  | 88 | > 80
4 | E. coli tryptophanase Y74F mutant, apo form (enzyme, tryptophanase (Trpase), E. coli, Y74F mutant, without PLP; one monomer in the asymmetric unit of the crystal, the tetramer arises by symmetry; also called Y74F apo; apo Y74F; source: E. coli BL21(DE3), pET17b plasmid, purified; apo enzyme by overnight dialysis of the holo enzyme) MENFKHLPEPFRIRVIEPVKRTTRAYREEAIIKSGMNPFLLDSEDVFIDLLTDSGTGAVTQSMQAAMMRGDEAFSGSRSYYALAESVKNIFGYQYTIPTHQGRGAEQIYIPVLIKKREQEKGLDRSKMVAFSNYFFDTTQGHSQINGCTVRNVYIKEAFDTGVRYDFKGNFDLEGLERGIEEVGPNNVPYIVATITSNSAGGQPVSLANLKAMYSIAKKYDIPVVMDSARFAENAYFIKQREAEYKDWTIEQITRETYKYADMLAMSAKKDAMVPMGGLLCMKDDSFFDVYTECRTLCVVQEGFPTYGGLEGGAMERLAVGLYDGMNLDWLAYRIAQVQYLVDGLEEIGVVCQQAGGHAAFVDAGKLLPHIPADQFPAQALACELYKVAGIRAVEIGSFLLGRDPKTGKQLPCPAELLRLTIPRATYTQTHMDFIIEAFKHVKENAANIKGLTFTYEPKVLRHFTAKLKEV |  |  |  |  | 83 | 80
5 | E. coli tryptophanase W330F mutant, holo form (enzyme, pyridoxal 5'-phosphate (PLP) covalently bound to Lys270, tryptophanase (Trpase), E. coli, W330F mutant; also called W330F holo; source: E. coli SVS 370 cells containing the tnaA gene with the site-directed mutation, purified as the wild type) not shown | < 5 | 61 | 0.00084 | 4 |  | 
6 | wild-type E. coli tryptophanase, holo form (enzyme, pyridoxal 5'-phosphate (PLP) covalently bound to Lys270, tryptophanase (Trpase, EC 4.1.99.1), E. coli, wild type, ~52 kD per monomer; also called wt holo; wt Trpase; source: E. coli SVS 370 cells containing the tnaA gene on plasmids, purified (DEAE anion exchange, Sephacryl S-300-HR)) not shown | < 3 | 20 | 0.00042 | 4 |  | 
7 | E. coli tryptophanase W330F mutant, apo form (enzyme, tryptophanase (Trpase), E. coli, W330F mutant, without PLP; also called W330F apo; source: E. coli SVS 370 cells containing the tnaA gene with the site-directed mutation, purified; apo enzyme by overnight dialysis of the holo enzyme) not shown |  |  |  |  | 90 | 69
8 | wild-type E. coli tryptophanase, apo form (enzyme, tryptophanase (Trpase, EC 4.1.99.1), E. coli, wild type, without PLP; also called wt apo; apo wt Trpase; source: E. coli SVS 370 cells containing the tnaA gene on plasmids, purified; apo enzyme by overnight dialysis of the holo enzyme against 0.1 M sodium phosphate-ethylenediamine buffer, pH 8.0, 4°C) not shown |  |  |  |  | 87 | 70
